In US20210332136A1:

Target: human PD-L1 on RT4 human bladder cancer cells (human) (UniProt Q9NZQ7)
Experiment: cell-based or functional assay

human PD-L1 on RT4 human bladder cancer cells (human), sequence (Q9NZQ7 19-290): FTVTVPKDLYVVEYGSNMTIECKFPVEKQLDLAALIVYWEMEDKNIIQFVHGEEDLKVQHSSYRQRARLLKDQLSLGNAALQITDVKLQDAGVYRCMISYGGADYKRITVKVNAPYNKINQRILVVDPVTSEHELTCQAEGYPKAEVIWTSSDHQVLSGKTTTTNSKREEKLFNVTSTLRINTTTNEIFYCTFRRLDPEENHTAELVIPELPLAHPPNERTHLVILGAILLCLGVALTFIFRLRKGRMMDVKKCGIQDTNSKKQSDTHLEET

Q: For atezolizumab (antibody), which viability of RT4 cells treated in vitro with rabusertib (Chk1 inhibitor) plus atezolizumab is on record?
A: Its viability of RT4 cells treated in vitro with rabusertib (Chk1 inhibitor) plus atezolizumab is 100%.
